{"source": "paper PMC3497731", "about": "(Bioscience Reports, 2012)", "molecules": {"B1": {"name": "FLAG epitope-tagged mouse adiponectin (natural protein, UniProt Q60994 18-247, looked up)", "chain": "EDDVTTTEELAPALVPPPKGTCAGWMAGIPGHPGHNGTPGRDGRDGTPGEKGEKGDAGLLGPKGETGDVGMTGAEGPRGFPGTPGRKGEPGEAAYVYRSAFSVGLETRVTVPNVPIRFTKIFYNQQNHYDGSTGKFYCNIPGLYYFSYHITVYMKDVKVSLFKKDKAVLFTYDQYQEKNVDQASGSVLLHLEVGDQVWLQVYGDGDHNGLYADNVNDSTFTGFLLYHDTN"}, "B2": {"name": "adiponectin of differentiated 3T3-L1 adipocytes (natural protein, mouse (endogenous in 3T3-L1), UniProt Q60994 18-247, looked up)", "chain": "B1 chain"}, "B3": {"name": "adiponectin purified from bovine serum (natural protein, UniProt Q3Y5Z3 18-240, looked up)", "chain": "EDNMEDPPLPKGACAGWMAGIPGHPGHNGTPGRDGRDGTPGEKGEKGDPGLVGPKGDTGETGITGIEGPRGFPGTPGRKGEPGESAYVYRSAFSVGLERQVTVPNVPIRFTKIFYNQQNHYDGTTGKFLCNIPGLYYFSYHITVYLKDVKVSLYKNDKALLFTHDQFQDKNVDQASGSVLLYLEKGDQVWLQVYEGENHNGVYADNVNDSTFTGFLLYHNIVE"}}, "key": {"[1]": {"target": "adiponectin secreted from isolated rat primary adipocytes (rat (endogenous in primary adipocytes))", "test": "native gel or EMSA"}, "[2]": {"target": "the molecule itself", "test": "non-reducing denaturing SDS/PAGE"}, "[3]": {"target": "the molecule itself", "test": "native gel or EMSA"}, "[4]": {"target": "the molecule itself", "test": "native gel or EMSA", "remark": "listed apart in the source"}, "[5]": {"target": "the molecule itself", "test": "SEC"}}, "note": "Where “and” joins values, the source holds several entries; their conditions need not be identical. Identical values can stand only once.", "data": [{"molecule": "adiponectin secreted from isolated rat primary adipocytes (natural protein)", "values": [{"measurement": "stoichiometry N", "setting": "[1]", "result": "6 and 3"}]}, {"molecule": "B1", "values": [{"measurement": "stoichiometry N", "setting": "[2]", "result": 2}, {"measurement": "stoichiometry N", "setting": "[3]", "result": "6 and 3"}]}, {"molecule": "B2", "values": [{"measurement": "stoichiometry N", "setting": "[4]", "result": "6 and 3"}]}, {"molecule": "B3", "values": [{"measurement": "stoichiometry N", "setting": "[5]", "result": 6}]}]}
